Here are results for two molecules from paper PMC12952242 (Molecular cell, 2025).

For assay [1], the target named is U1 snRNP (lacking the Sm ring), reconstituted (human, UniProt P08621-1 1-216; P09012 1-282; P09234 1-159). Description: pull-down.
Assay [2] deals with U1–70K (SNRNP70) 1–216, recombinant (human, UniProt P08621-1 1-216). Description: pull-down.
Chain of U1–70K (SNRNP70) 1–216, recombinant (P08621 1-216): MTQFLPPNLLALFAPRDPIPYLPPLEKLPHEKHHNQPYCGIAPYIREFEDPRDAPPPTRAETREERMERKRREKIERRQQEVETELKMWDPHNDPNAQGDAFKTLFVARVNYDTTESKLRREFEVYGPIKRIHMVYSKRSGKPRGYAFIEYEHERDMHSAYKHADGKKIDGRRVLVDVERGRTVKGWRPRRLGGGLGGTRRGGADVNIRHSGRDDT

Chain of U1 snRNP (lacking the Sm ring), reconstituted (P08621 1-216, chain 1 of 3): as the sequence (P08621 1-216) above
Chain of U1 snRNP (lacking the Sm ring), reconstituted (P09012 whole entry, chain 2 of 3): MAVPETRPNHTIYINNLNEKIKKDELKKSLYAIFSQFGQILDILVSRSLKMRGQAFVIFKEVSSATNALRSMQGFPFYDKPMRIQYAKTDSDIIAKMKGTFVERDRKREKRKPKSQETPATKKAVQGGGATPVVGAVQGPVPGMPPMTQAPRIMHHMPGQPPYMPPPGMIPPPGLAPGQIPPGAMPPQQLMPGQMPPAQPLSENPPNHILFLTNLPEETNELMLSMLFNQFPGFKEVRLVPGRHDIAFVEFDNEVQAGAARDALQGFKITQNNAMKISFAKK
Chain of U1 snRNP (lacking the Sm ring), reconstituted (P09234 whole entry, chain 3 of 3): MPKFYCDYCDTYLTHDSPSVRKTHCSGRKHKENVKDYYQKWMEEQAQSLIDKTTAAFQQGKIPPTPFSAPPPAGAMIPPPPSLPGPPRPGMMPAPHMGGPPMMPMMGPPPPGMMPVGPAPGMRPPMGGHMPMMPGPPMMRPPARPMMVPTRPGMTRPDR

B1: ZNF207 full-length, recombinant (natural protein)
chain: not shown
As for B1, in assay [1], the binding result was “binds”.

B2: ZNF207 1–122 (ZnF+Hel), recombinant (domain or fragment)
chain: not shown
On to B2, for which the binding result in assay [1] and in assay [2] was “binds” each time.
